This sample holds only a part of the variants without activity.
Legend:
biotinyl-Val-oxazolone = assay: self-aminoacylation, catalytic enhancement (BVO) (fold over background); higher = more active; k-Seq, kA / k0A0; sequences stand for … in GGGAAUGGAUCCACAUCUACGAAUUC…UUCACUGCAGACUUGACGAAGCUG
Outline: (§1)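 Mutagenized RNA pools with a 21-nt variable region (0.43 μM) were reacted with each biotinyl-aminoacyl-oxazolone at 2–1250 μM for 90 minutes at room temperature, in 50 μL HEPES/NaCl/KCl/MgCl2/CaCl2 buffer containing 5% acetonitrile at pH 6.9–7.0. RNA captured on streptavidin was quantified by triplicate qPCR and by Illumina sequencing. The fraction reacted for each sequence was fit to a pseudo-first-order model with bootstrapping, and catalytic enhancement is the median kA divided by the uncatalyzed rate, taken as the low-activity peak of a bimodal Gaussian fit.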

biotinyl-Leu-oxazolone = assay: self-aminoacylation, catalytic enhancement (BLO) (fold over background); higher = more active; k-Seq, kA / k0A0; sequences stand for … in GGGAAUGGAUCCACAUCUACGAAUUC…UUCACUGCAGACUUGACGAAGCUG
Outline: as §1

biotinyl-Trp-oxazolone = assay: self-aminoacylation, catalytic enhancement (BWO) (fold over background); higher = more active; k-Seq, kA / k0A0; sequences stand for … in GGGAAUGGAUCCACAUCUACGAAUUC…UUCACUGCAGACUUGACGAAGCUG
Outline: as §1

biotinyl-Met-oxazolone = assay: self-aminoacylation, catalytic enhancement (BMO) (fold over background); higher = more active; k-Seq, kA / k0A0; sequences stand for … in GGGAAUGGAUCCACAUCUACGAAUUC…UUCACUGCAGACUUGACGAAGCUG
Outline: as §1

biotinyl-Phe-oxazolone = assay: self-aminoacylation, catalytic enhancement (BFO) (fold over background); higher = more active; k-Seq, kA / k0A0; sequences stand for … in GGGAAUGGAUCCACAUCUACGAAUUC…UUCACUGCAGACUUGACGAAGCUG
Outline: as §1

biotinyl-Ile-oxazolone = assay: self-aminoacylation, catalytic enhancement (BIO) (fold over background); higher = more active; k-Seq, kA / k0A0; sequences stand for … in GGGAAUGGAUCCACAUCUACGAAUUC…UUCACUGCAGACUUGACGAAGCUG
Outline: as §1

Sequence	self-aminoacylation (biotinyl-Val-oxazolone)	self-aminoacylation (biotinyl-Leu-oxazolone)	self-aminoacylation (biotinyl-Trp-oxazolone)	self-aminoacylation (biotinyl-Met-oxazolone)	self-aminoacylation (biotinyl-Phe-oxazolone)	self-aminoacylation (biotinyl-Ile-oxazolone)
CGACACUUCAAGCAGUCGGUC [Fam1B.1 aminoacylation ribozyme variant]	0.99	1.23	1.74	1.64	1.04	1.25
CGACACUUCAAGUAAUCGGUC [Fam1B.1 aminoacylation ribozyme variant]	1.47	1.16	2.28	1.5	3.36	1.69
CGACACUUCAAUCAAUCGGUC [Fam1B.1 aminoacylation ribozyme variant]	1.05	1.15	7.59	0.958	14.7	1.04
CGACACUUCAUGCAAUCGGUC [Fam1B.1 aminoacylation ribozyme variant]	1.17	0.932	0.973	0.971	1.34	1.05
CGACACUUCGAGCAAUCGGUC [Fam1B.1 aminoacylation ribozyme variant]	1.4	1.18	0.998	1.28	1.37	1.24
CGACUCUUCAAGCAAUCGGUC [Fam1B.1 aminoacylation ribozyme variant]	1.32	0.86	3.07	1.02	3.23	1.22
CGACUUCAAACAAUCCGUCUG [Fam1A.1 aminoacylation ribozyme variant]	1.18	1.07	1.72	1.23	2.5	1.27
CGACUUCAAACAAUCGCUCUG [Fam1A.1 aminoacylation ribozyme variant]	1.24	1.42	3.07	1.36	3.61	1.42
CGACUUCAAACAAUCGGCCUG [Fam1A.1 aminoacylation ribozyme variant]	4.06	6.69	95.7	3.62	277	3.29
CGACUUCAAACAAUCGGUCAG [Fam1A.1 aminoacylation ribozyme variant]	0.883	0.772	4.08	0.707	8.58	0.915
CGACUUCAAACAAUCGGUCGG [Fam1A.1 aminoacylation ribozyme variant]	2.08	2.68	5.43	1.99	9.34	2.47
CGACUUCAAACAGUCGGUCUG [Fam1A.1 aminoacylation ribozyme variant]	1.84	1.63	1.98	1.71	10	1.83
CGACUUCAAACGAUCGGUCUG [Fam1A.1 aminoacylation ribozyme variant]	1.13	1.41	2.1	1.31	1.8	1.05
CGACUUCACACAAUCGGUCUG [Fam1A.1 aminoacylation ribozyme variant]	1.14	1.23	1.01	0.934	1.07	1.05
CGACUUCUAACAAUCGGUCUG [Fam1A.1 aminoacylation ribozyme variant]	0.931	0.917	0.591	0.936	0.961	0.905
CGAUUUCAAACAAUCGGUCUG [Fam1A.1 aminoacylation ribozyme variant]	1.66	1.63	5.97	1.46	16.4	1.74
CGGUUUGCUAAUAGUCGCAAG [Fam3.1 aminoacylation ribozyme variant]	1.18	1.17	1.68	1.17	2.27	1.18
CUAAACUUCAAGCAAUCGGUC [Fam1B.1 aminoacylation ribozyme variant]	1.03	1.26	15.1	0.876	33.1	0.956
CUAAUUAAAACAAUCGGUCUG [Fam1A.1 aminoacylation ribozyme variant]	0.738	0.782	0.564	0.827	0.555	0.791
CUAAUUCAAACAAUCAGUCUG [Fam1A.1 aminoacylation ribozyme variant]	0.772	0.674	1.44	0.702	3.65	0.659
CUAAUUCAAACAAUCGGUCUU [Fam1A.1 aminoacylation ribozyme variant]	0.716	0.629	1.32	0.695	2.49	0.743
CUAAUUCAAACAAUCGGUGUG [Fam1A.1 aminoacylation ribozyme variant]	0.659	1.01	0.691	0.913	0.924	0.75
CUAAUUCAAACAAUGGGUCUG [Fam1A.1 aminoacylation ribozyme variant]	0.739	0.643	0.468	0.777	0.481	0.742
CUAAUUCAAACAAUUGGUCUG [Fam1A.1 aminoacylation ribozyme variant]	0.687	0.744	0.572	0.776	0.608	0.839
CUAAUUCACACAAUCGGUCUG [Fam1A.1 aminoacylation ribozyme variant]	0.771	0.85	0.598	0.874	0.759	0.912
CUACACCUAGGUCAUCGGGUG [Fam2.2 aminoacylation ribozyme variant]	1.72	2.12	2.08	2.27	3.13	1.72

Sequence	self-aminoacylation (biotinyl-Val-oxazolone)	self-aminoacylation (biotinyl-Leu-oxazolone)	self-aminoacylation (biotinyl-Trp-oxazolone)	self-aminoacylation (biotinyl-Met-oxazolone)	self-aminoacylation (biotinyl-Phe-oxazolone)	self-aminoacylation (biotinyl-Ile-oxazolone)
CUACACCUCAAGCAAUCGGUC [Fam1B.1 aminoacylation ribozyme variant]	0.976	0.8	1.41	0.869	2.14	1.01
CUACACUUCAAACAAUCGGUC [Fam1B.1 aminoacylation ribozyme variant]	1.27	2.08	39	1.34	88.2	1.22
CUACACUUCAAGCAAUAGGUC [Fam1B.1 aminoacylation ribozyme variant]	0.585	0.527	0.506	0.44	1.06	0.542
CUACACUUCAAGCAAUCAGUC [Fam1B.1 aminoacylation ribozyme variant]	0.886	0.754	6.32	0.718	21	0.668
CUACACUUCAAGCAAUCGAUC [Fam1B.1 aminoacylation ribozyme variant]	0.649	0.458	0.769	0.404	2.02	0.527
CUACACUUCAAGCUAUCGGUC [Fam1B.1 aminoacylation ribozyme variant]	0.876	0.692	0.608	0.746	0.833	0.87
CUACACUUCAUGCAAUCGGUC [Fam1B.1 aminoacylation ribozyme variant]	0.693	0.516	0.496	0.623	0.689	0.707
CUACAGCAAACAAUCGGUCUG [Fam1A.1 aminoacylation ribozyme variant]	0.65	0.577	0.574	0.482	0.421	0.48
CUACAUCAAACAACCGGUCUG [Fam1A.1 aminoacylation ribozyme variant]	1.11	1.14	1.47	1.31	1.22	0.885
CUACAUCAAACAAUCGGUCUC [Fam1A.1 aminoacylation ribozyme variant]	0.779	0.532	0.882	0.683	1.64	0.575
CUACAUCAAACAAUCGGUGUG [Fam1A.1 aminoacylation ribozyme variant]	0.803	1.16	0.626	1.03	0.672	0.722
CUACCGCAAACAAUCGGUCUG [Fam1A.1 aminoacylation ribozyme variant]	0.961	0.896	0.689	0.981	2.36	0.857
CUACCUCAAAAAAUCGGUCUG [Fam1A.1 aminoacylation ribozyme variant]	1.01	1.49	1.3	1.41	1.28	1.02
CUACCUCAAACAAUCAGUCUG [Fam1A.1 aminoacylation ribozyme variant]	0.647	0.671	0.702	0.588	1.74	0.649
CUACCUCAAACAAUCGGUCUU [Fam1A.1 aminoacylation ribozyme variant]	0.865	0.784	1.65	0.623	1.34	0.996
CUACCUCAAACAAUCGGUGUG [Fam1A.1 aminoacylation ribozyme variant]	1.11	2.02	0.845	0.952	0.583	1.19
CUACCUCAAACAAUUGGUCUG [Fam1A.1 aminoacylation ribozyme variant]	1.04	0.824	0.733	1.08	0.81	1.08
CUACGUCAAACAAUCCGUCUG [Fam1A.1 aminoacylation ribozyme variant]	1.24	0.974	1.18	1.43	2.75	1.25
CUACGUCAAACAAUCGGUCUC [Fam1A.1 aminoacylation ribozyme variant]	1.04	0.765	1.32	1.09	1.24	0.998
CUACGUCAAACUAUCGGUCUG [Fam1A.1 aminoacylation ribozyme variant]	1.76	1.72	1.58	1.95	5.88	1.58
CUACGUCAAGCAAUCGGUCUG [Fam1A.1 aminoacylation ribozyme variant]	1.72	1.47	1.17	1.39	1.88	1.63
CUACUACAAACAAUCGGUCAG [Fam1A.1 aminoacylation ribozyme variant]	0.646	0.414	0.537	0.547	0.636	0.561
CUACUACAAACAAUCUGUCUG [Fam1A.1 aminoacylation ribozyme variant]	0.835	0.647	0.45	0.624	0.733	0.787
CUACUACAAACAUUCGGUCUG [Fam1A.1 aminoacylation ribozyme variant]	1.38	1.01	1.18	1.23	1.33	1.34
CUACUACAAAGAAUCGGUCUG [Fam1A.1 aminoacylation ribozyme variant]	0.54	0.775	0.8	0.788	0.547	0.781

— the supplement of paper PMC9233669
